The target in the test is Asparaginase-like 1 protein (ASRGL1), recombinant full-length (UniProt Q7L266). The test is described as follows: differential scanning fluorimetry (protein thermal shift assay); recombinant ASRGL1 with increasing concentrations of TDP-43 in PBS (10 mM phosphate, 150 mM NaCl, pH 7.4), 30 min at 25 °C, ramp 25 to 99 °C; Tm plotted against TDP-43 concentration, inflection point of a sigmoidal fit …. For orientation: DSF heats the sample and reads unfolding from a dye or from intrinsic fluorescence.
Chain of UniProt Q7L266 (Q7L266 whole entry): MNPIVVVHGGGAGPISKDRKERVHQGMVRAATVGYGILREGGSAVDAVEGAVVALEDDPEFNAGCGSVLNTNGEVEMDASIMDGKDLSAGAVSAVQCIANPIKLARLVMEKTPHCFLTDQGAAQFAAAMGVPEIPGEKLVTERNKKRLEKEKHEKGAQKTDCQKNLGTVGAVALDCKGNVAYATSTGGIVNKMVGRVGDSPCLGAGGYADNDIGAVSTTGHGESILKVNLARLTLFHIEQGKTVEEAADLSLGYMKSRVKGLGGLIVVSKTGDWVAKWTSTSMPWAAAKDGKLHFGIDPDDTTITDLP

In general, EC50 refers to the midpoint of the concentration-response curve. As to “TAR DNA-binding protein 43 (TDP-43), native form, recombinant full-length (from UniProt Q13148 1-414) (natural protein)”, the EC50 came to 36.1 nM and the shift in Tm of ASRGL1 with 1 μM TDP-43 was 10 °C.

The values are drawn from paper PMC11099023.
